The text below walks through data of IntAct's records for PubMed 24114786.

One experiment has as its target bak1_arath BAK1 (UniProt Q94F62).
For a further experiment, the target named is flica_pseai fliC (UniProt P21184).
Chain of flica_pseai fliC (P21184 whole entry): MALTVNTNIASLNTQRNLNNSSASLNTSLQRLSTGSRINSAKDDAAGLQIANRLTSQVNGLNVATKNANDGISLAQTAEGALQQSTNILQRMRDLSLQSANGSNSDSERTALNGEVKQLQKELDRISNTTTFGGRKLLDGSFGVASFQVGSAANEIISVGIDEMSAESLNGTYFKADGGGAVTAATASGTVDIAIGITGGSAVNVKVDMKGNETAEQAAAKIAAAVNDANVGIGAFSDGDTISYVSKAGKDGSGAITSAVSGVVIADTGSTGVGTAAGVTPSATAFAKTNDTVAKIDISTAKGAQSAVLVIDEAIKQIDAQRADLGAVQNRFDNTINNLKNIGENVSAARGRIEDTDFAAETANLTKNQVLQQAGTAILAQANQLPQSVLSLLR

Chain of bak1_arath BAK1 (Q94F62 whole entry): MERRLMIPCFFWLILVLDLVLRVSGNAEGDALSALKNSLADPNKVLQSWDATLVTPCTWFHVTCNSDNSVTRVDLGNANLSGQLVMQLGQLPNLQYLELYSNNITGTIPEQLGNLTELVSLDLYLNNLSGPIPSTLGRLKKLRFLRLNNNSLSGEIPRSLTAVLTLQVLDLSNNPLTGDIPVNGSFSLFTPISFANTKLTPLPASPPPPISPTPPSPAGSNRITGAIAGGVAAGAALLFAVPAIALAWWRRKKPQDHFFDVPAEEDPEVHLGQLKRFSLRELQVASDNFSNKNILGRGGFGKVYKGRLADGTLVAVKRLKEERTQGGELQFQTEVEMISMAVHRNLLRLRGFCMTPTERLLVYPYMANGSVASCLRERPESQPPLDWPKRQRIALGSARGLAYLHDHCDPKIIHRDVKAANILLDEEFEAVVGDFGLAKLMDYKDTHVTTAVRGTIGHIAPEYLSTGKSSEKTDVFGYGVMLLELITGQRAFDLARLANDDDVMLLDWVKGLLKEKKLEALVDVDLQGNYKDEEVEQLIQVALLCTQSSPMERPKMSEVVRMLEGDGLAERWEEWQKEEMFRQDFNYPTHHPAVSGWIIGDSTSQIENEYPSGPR
Chain of LRR receptor-like serine/threonine-protein kinase FLS2 (Arabidopsis thaliana (Mouse-ear cress)), Q9FL28 R294A;H316A (Q9FL28 whole entry R294A/H316A): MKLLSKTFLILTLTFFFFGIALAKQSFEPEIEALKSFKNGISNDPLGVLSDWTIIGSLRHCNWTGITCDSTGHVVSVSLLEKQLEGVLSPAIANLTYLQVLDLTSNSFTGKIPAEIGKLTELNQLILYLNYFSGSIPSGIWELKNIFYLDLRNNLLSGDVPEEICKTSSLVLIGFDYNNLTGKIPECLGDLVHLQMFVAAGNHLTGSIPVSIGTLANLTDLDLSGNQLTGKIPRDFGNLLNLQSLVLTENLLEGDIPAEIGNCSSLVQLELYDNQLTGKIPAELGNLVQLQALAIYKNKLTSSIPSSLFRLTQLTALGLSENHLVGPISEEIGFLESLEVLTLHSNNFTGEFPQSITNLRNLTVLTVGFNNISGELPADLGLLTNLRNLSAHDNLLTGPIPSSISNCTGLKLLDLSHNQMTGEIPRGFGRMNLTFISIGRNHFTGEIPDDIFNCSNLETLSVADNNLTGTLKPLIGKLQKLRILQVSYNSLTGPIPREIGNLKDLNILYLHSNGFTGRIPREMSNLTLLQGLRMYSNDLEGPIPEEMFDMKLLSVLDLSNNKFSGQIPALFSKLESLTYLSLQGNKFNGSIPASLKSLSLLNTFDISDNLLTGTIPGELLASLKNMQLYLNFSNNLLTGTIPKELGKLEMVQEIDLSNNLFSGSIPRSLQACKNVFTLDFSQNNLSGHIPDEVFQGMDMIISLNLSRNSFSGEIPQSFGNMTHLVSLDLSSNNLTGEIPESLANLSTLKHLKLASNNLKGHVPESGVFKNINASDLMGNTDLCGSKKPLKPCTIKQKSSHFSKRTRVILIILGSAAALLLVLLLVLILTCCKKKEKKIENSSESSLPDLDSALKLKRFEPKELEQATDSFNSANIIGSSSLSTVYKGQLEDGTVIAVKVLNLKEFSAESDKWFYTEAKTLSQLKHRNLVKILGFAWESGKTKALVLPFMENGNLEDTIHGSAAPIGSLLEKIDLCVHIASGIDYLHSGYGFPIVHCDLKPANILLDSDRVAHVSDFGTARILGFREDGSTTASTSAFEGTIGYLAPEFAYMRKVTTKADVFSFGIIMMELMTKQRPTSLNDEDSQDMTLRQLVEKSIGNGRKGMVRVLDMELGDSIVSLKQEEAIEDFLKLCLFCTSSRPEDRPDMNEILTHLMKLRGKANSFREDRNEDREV
Chain of LRR receptor-like serine/threonine-protein kinase FLS2 (Arabidopsis thaliana (Mouse-ear cress)), Q9FL28 D414A (Q9FL28 whole entry D414A): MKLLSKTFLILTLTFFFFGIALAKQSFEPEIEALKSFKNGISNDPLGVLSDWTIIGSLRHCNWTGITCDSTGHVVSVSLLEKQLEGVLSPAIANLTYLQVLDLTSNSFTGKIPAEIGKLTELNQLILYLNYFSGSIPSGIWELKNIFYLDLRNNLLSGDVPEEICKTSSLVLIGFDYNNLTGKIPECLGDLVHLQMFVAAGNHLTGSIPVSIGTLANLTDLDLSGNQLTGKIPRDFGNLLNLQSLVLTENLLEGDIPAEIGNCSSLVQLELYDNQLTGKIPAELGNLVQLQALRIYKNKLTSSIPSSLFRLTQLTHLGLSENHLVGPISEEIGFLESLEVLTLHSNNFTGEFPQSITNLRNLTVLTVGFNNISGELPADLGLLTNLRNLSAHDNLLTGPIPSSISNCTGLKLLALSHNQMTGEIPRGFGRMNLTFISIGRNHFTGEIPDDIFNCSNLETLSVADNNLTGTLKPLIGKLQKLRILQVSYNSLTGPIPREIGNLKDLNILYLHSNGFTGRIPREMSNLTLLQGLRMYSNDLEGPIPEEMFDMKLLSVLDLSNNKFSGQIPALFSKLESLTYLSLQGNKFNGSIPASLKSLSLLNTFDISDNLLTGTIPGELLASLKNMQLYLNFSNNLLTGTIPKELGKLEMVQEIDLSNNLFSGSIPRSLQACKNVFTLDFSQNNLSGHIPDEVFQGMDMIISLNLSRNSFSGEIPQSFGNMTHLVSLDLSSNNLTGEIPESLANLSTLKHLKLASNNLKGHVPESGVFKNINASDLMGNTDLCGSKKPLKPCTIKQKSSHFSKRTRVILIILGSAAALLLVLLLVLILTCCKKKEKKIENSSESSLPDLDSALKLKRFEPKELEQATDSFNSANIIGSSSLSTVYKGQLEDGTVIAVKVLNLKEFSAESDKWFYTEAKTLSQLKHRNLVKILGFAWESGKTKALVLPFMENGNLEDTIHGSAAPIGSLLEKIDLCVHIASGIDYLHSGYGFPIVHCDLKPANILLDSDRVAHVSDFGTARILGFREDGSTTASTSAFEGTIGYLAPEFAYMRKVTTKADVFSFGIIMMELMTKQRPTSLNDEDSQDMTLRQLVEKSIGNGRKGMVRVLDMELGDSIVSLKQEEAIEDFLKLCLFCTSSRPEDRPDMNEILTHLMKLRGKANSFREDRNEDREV
Chain of LRR receptor-like serine/threonine-protein kinase FLS2 (Arabidopsis thaliana (Mouse-ear cress)), Q9FL28 T342Y (Q9FL28 whole entry T342Y): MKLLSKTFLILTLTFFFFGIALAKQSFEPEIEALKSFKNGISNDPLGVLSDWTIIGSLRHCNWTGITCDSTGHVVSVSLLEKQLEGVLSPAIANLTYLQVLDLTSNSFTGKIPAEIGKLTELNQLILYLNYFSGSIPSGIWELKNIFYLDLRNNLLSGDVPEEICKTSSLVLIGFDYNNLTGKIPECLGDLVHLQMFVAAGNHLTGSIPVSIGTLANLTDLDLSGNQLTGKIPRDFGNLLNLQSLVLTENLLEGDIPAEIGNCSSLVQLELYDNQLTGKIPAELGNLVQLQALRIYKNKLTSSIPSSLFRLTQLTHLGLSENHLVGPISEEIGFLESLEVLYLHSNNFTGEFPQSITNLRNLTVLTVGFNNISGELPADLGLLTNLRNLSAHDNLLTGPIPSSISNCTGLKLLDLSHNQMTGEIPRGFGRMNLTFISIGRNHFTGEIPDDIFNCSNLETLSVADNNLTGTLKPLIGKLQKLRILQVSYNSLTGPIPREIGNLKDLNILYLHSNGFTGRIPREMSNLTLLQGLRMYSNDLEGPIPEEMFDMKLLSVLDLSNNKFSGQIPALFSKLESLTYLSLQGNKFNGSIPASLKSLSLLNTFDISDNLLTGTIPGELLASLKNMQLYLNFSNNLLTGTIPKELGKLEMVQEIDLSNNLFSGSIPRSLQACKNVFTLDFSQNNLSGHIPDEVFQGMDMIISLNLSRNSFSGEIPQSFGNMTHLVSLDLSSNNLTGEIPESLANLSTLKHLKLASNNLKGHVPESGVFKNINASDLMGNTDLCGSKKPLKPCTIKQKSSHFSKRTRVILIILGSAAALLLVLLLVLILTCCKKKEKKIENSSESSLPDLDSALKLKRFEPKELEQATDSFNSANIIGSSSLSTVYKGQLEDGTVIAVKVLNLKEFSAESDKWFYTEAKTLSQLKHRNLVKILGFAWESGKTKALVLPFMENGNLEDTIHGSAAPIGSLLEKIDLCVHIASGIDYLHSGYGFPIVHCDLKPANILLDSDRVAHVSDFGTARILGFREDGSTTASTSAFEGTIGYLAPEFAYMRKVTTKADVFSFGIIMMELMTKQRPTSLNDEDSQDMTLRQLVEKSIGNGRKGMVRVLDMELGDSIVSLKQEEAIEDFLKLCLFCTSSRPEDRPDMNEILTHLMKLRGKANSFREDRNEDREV

As for “LRR receptor-like serine/threonine-protein kinase FLS2 (Arabidopsis thaliana (Mouse-ear cress)), Q9FL28 D414A”, the “effect of a mutation on the interaction” value with bak1_arath BAK1 and with flica_pseai fliC was “decreasing interaction strength” in each case.
Turning to “LRR receptor-like serine/threonine-protein kinase FLS2 (Arabidopsis thaliana (Mouse-ear cress)), Q9FL28 R294A;H316A”, the “effect of a mutation on the interaction” value with bak1_arath BAK1 and in the experiment with flica_pseai fliC was “disrupting interaction strength” each time.
“LRR receptor-like serine/threonine-protein kinase FLS2 (Arabidopsis thaliana (Mouse-ear cress)), Q9FL28 S437Y”: the “effect of a mutation on the interaction” value in the experiment with bak1_arath BAK1 and with flica_pseai fliC was “decreasing interaction strength” each time.
Take “LRR receptor-like serine/threonine-protein kinase FLS2 (Arabidopsis thaliana (Mouse-ear cress)), Q9FL28 T342Y”: the “effect of a mutation on the interaction” value with bak1_arath BAK1 and in the experiment with flica_pseai fliC was “disrupting interaction strength” throughout.
